T1: IL-4 receptor (Homo sapiens, UniProt P24394)
T1 sequence (P24394 26-825): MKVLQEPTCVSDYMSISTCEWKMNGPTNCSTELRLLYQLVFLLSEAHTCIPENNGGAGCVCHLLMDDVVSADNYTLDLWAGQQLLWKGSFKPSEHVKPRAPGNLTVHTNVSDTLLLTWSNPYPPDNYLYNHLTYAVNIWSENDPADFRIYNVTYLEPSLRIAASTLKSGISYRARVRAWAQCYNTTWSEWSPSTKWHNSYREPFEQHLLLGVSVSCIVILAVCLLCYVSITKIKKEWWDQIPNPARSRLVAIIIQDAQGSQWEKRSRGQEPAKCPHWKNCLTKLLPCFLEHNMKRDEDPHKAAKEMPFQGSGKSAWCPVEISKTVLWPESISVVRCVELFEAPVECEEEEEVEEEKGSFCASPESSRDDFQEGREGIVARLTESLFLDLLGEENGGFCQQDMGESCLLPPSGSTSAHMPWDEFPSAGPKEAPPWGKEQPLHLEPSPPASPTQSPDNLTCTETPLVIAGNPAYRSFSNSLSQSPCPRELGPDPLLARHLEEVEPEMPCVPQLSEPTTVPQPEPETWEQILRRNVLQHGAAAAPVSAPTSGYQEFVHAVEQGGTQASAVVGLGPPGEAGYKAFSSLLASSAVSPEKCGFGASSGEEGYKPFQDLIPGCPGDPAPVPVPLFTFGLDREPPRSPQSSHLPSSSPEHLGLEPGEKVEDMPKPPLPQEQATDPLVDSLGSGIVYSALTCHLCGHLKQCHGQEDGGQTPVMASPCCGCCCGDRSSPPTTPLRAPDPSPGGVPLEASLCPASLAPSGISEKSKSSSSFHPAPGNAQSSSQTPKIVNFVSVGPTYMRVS


Key:
[1] = test system: A549 cells overexpressing IL-4 receptor; assay: Cell binding test using flow cytometry (FACS); type: cell-based, human
Protocol: First, A549 cells were grown to about 80% confluence in a 100 mm-diameter plate. The plated cells were washed twice with PBS, and detached from the plate using Trypsin/EDTA. Then, 2×10^5/100 μl cells were suspended in PBS containing 1% bovine serum albumin (BSA), and incubated at 4° C. for 30 min. […] The above blocking procedure was performed on one group, and was not performed on the other group, and the following experiment was performed on both groups. After washing twice with PBS, the ferritin without AP1 insertion and the AP1-inserted ferritin were diluted to 400 nM in buffer (20 mM Tris, 150 mM NaCl, 180 mM Histidine), and then allowed to bind at 4° C. for 20 min. After washing twice with PBS, the ferritin light chain antibody (D-18, sc-14420) was diluted to 1:400 in PBS buffer containing 1% BSA, and incubated in ice for 30 min. After washing twice with PBS, Alexa Fluor 488 donkey anti-goat IgG (H+L) antibody (invitrogen, USA) was diluted to 1:200 in PBS containing 1% BSA, and incubated in ice for 30 min. After washing twice with PBS, the cells were suspended in 500 ul PBS, and analyzed with FACS.
First, A549 cells were grown to about 80% confluence in a 100 φ plate. The plated cells were washed twice with PBS, and detached from the plate using Trypsin/EDTA. […] After washing twice with PBS, the cells were suspended in 500 ul PBS, and then analyzed with FACS.

[2] = test system: A549 cells overexpressing IL-4 receptor; assay: Cell binding test using confocal microscope; type: cell-based; conditions: 400 nM, 4° C., 20 min, FIG. 6
Protocol: First, A549 cells were grown to about 80% confluence in a 100 mm-diameter plate. The plated cells were washed twice with PBS, and detached from the plate using Trypsin/EDTA. Then, 2×10^5/100 ul cells were suspended in PBS containing 1% bovine serum albumin (BSA), and incubated at 4° C. for 30 min. After washing twice with PBS, the ferritin without AP1 insertion and the AP1-inserted ferritin were diluted to 400 nM in buffer (20 mM Tris, 150 mM NaCl, 180 mM Histidine), and then allowed to bind at 4° C. for 20 min. After washing twice with PBS, the ferritin light chain antibody (D-18, sc-14420) was diluted to 1:400 in PBS buffer containing 1% BSA, and incubated in ice for 30 min. After washing twice with PBS, Alexa Fluor 488 donkey anti-goat IgG (H+L) antibody was diluted to 1:200 in PBS containing 1% BSA, and then incubated in ice for 30 min. After washing twice with PBS, 4% paraformaldehyde (PFA) was added for cell fixation, and cells in suspension were added in the 8-well slide chamber. The cells were attached in the chamber by centrifugation at 1000 rpm for 10 min.
After washing twice with PBS, the cells were stained by incubation with 4′,6-diamidino-2-phenylindole (DAPI) for 3 min in dark place, mounted in antifade reagent to close a cover glass, and analyzed by Z-stack type confocal microscopy.

IL-4 receptor = biological target: T1, IL-4 receptor; assay: Surface plasmon resonance (SPR) analysis of binding affinity to immobilised IL-4 receptor; conditions: Table 4
Protocol: (§1) Here, the right channel was used as a reference channel. In the two channels, left channel and right channel, 1M ethanolamine (pH 8.5) solution was allowed to flow over the unreacted surface for 7 min for blocking, so as to reduce non-specific adsorption thereof. All test procedures were conducted at a temperature of 25° C. and the flow rate was 25 ul/min.
The buffer (20 mM Tris-HCl pH 8.0, 150 mM NaCl, 180 mM Histidine, 62.5 ug/ml BSA, 0.005% Tween 20) was used through filtering and degassing. The wild type ferritin and the AP1-inserted ferritins were allowed to flow over at concentrations of 0.65 nM, 1.3 nM, 2.6 nM, 5.2 nM, 10.4 nM, 20.8 nM, and 41.6 nM for 3 min, and the same buffer was allowed to flow over for 3 min. For regeneration, 2 M NaCl was allowed to flow over for […] to wash the proteins remaining without dissociation. Specific binding values, obtained by subtracting the right channel value from the left channel value, in the concentration ranging from 0.65 nM to 10.4 nM, were plotted on a graph.
AP1 peptide was allowed to flow over at concentrations of 3.125 uM, 6.25 uM, 12.5 uM, 25 uM, and 50 uM for 3 min, and the same buffer was allowed to flow over for 3 min. For regeneration, 2 M NaCl was allowed to flow over for 1 min to wash the proteins remaining without dissociation. Specific binding values, obtained by subtracting the right channel value from the left channel value, in the respective concentrations, were plotted on a graph (see FIG. 8).
In the binding graph, the RU value expressing the amount of bound protein was measured by subtracting the blank (buffer) value and reference channel (right channel) value, using Scrubber software. The KD value was obtained from the binding RU (Req) values measured at the respective concentrations using KaleidaGraph software.
The experiment was conducted like in example <5-1>, and RU values shown for concentrations ranging from 0.65 nM to 41.6 nM were plotted on a graph using GraphPad prism 4 program.
For comparison of binding affinity between FTL-AP1 and FTL-AP1_AP1, surface plasmon resonance analysis was conducted. Analysis was conducted by the same method as in Example <5-1>. The binding of FTL-AP1 was analyzed at concentrations of 0.26 nM, 1.041 nM, 2.083 nM, and 4.166 nM, respectively, and the binding of FTL-AP1_AP1 was analyzed at concentrations of 0.520 nM, 1.041 nM, 2.083 nM, and 4.166 nM, respectively.

integrin alphavbeta3 = integrin alphavbeta3 (Homo sapiens, UniProt P05106+P06756); assay: SPR analysis of binding affinity to integrin alphavbeta3; conditions: FIG. 16
Protocol: as §1, with “Then, 40 mM N-(3-dimethylaminopropyl)-N′-ethylcarbodiimide hydrochloride (EDC)/10 mM N-hydroxy-succinimide (NHS) were allowed to flow over each channel (left, right) of carboxymethyl dextran chip for 7 min for surface activation, and then 200 ul of the prepared alphavbeta3 protein was allowed to flow over the left channel for 7 min for immobilization. Here,” for “Here,”
The buffer (10 mM Hepes pH 7.4, 150 mM NaCl, 180 mM Histidine, 1 mM MgCl2, 0.005% Tween 20) was used through filtering and degassing. The wild type ferritin and the RGD-inserted ferritins were allowed to flow over at concentrations of 0.65 nM, 1.3 nM, 2.6 nM, 5.2 nM, 10.4 nM, 20.8 nM, and 41.6 nM, respectively, for 3 min, and the same buffer was allowed to flow over for 3 min. For regeneration, 2 M NaCl was allowed to flow over for 1 min to wash the proteins remaining without dissociation. […]
In the binding graph, the RU value expressing the amount of bound protein was measured by subtracting the blank (buffer) value and reference channel (right channel) value, using Scrubber software.

integrin alphavbeta3, sequence (P06756 31-1048): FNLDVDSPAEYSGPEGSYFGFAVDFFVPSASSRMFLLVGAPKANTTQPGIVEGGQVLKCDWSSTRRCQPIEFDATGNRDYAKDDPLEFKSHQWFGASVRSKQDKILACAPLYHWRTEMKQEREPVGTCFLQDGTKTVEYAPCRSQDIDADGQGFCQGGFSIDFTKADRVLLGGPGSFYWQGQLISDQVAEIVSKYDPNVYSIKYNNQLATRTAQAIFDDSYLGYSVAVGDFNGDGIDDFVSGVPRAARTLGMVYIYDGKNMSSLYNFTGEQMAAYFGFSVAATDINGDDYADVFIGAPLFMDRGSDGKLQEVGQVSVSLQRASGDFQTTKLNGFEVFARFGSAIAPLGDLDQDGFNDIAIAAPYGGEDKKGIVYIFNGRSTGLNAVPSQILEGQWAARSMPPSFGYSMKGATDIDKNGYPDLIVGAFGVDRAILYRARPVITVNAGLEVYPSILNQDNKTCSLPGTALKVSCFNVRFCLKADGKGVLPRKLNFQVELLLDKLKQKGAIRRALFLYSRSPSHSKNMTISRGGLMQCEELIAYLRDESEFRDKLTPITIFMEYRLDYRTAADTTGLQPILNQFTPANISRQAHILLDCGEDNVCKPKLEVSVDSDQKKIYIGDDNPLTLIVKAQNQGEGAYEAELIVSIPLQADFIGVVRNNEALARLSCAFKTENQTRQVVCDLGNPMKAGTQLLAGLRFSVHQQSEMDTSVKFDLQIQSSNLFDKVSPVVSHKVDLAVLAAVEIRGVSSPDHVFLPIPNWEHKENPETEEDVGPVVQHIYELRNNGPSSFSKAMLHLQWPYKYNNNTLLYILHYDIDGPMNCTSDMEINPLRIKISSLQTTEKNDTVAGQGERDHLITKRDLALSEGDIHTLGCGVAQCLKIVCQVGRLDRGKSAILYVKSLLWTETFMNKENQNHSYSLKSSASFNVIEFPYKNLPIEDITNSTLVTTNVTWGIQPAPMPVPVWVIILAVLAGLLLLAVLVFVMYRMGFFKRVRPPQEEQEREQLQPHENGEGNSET
integrin alphavbeta3, sequence (P05106 27-788): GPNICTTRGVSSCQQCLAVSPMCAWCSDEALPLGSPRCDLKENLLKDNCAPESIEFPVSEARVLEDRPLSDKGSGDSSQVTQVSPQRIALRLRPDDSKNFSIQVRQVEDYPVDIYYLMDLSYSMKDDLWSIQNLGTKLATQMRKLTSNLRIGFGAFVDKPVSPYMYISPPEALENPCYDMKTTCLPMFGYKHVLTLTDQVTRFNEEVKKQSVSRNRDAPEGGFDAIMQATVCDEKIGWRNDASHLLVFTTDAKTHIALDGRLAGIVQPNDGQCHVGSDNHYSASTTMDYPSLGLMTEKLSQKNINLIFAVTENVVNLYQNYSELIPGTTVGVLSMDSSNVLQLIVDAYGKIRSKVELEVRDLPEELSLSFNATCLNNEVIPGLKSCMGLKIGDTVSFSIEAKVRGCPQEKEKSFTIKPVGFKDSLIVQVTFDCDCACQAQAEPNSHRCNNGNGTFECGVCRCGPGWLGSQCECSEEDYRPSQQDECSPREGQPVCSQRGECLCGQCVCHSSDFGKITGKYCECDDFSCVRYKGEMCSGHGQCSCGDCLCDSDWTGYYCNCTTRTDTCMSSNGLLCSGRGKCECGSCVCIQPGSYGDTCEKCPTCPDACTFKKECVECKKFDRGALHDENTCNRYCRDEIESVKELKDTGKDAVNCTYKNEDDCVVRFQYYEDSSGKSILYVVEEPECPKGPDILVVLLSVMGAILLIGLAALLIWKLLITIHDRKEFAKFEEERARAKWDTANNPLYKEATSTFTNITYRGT

| Molecule | Koff (IL-4 receptor) | Kon (IL-4 receptor) | binding to integrin alphavbeta3 (integrin alphavbeta3) | also measured |
| --- | --- | --- | --- | --- |
| wild type ferritin: human ferritin light chain (SEQ ID NO: 1) without AP1 insertion, control cage [reference compound] |  |  |  | binding to IL-4 receptor in A549 cells (FACS) ([1]; 400 nM, 4° C., 20 min, FIG. 5): did not bind to IL-4 receptor; binding to A549 cells / cell membrane (confocal microscopy) [2]: did not bind to A549 cells |
| FTL-AP1_AP1: fusion polypeptide in which AP1S was additionally fused to N-terminal of FTL_GG-AP1S (protein, left off: small tags and cut ends) MRKRLDRNGGGSGMSSQIRQNYSTDVEAAVNSLVNLYLQASYTYLSLGFYFDRDDVALEGVSHFFRELAEEKREGYERLLKMQNQRGGRALFQDIKKPAEDEWGKTPDAMKAAMALEKKLNQALLDLHALGSARTDPHLCDFLETHFLDEEVKLIKKMGDHLTNLHRGSRKRLDRNGGPEAGLGEYLFERLTLKHD | 3.8 × 10^−5 S^−1 | 8.26 × 10^5 M^−1S^−1 |  | amount bound to IL-4 receptor compared with FTL-AP1 (FACS) ([1]; at 400 nM and 200 nM, FIG. 13): larger amount than FTL-AP1 |
| FTL-RGD-AP1: human ferritin light chain with inserted RGD and AP1 peptides (AP1 exchanged with RGD relative to FTL-AP1_RGD) (protein, left off: small tags and cut ends) MRGDGGGSGMSSQIRQNYSTDVEAAVNSLVNLYLQASYTYLSLGFYFDRDDVALEGVSHFFRELAEEKREGYERLLKMQNQRGGRALFQDIKKPAEDEWGKTPDAMKAAMALEKKLNQALLDLHALGSARTDPHLCDFLETHFLDEEVKLIKKMGDHLTNLHRGSRKRLDRNGGPEAGLGEYLFERLTLKHD |  |  | bound to integrin alphavbeta3 in a concentration-dependent manner |  |
| FTL-GRGDSP-AP1: ferritin having inserted GRGDSP and AP1 peptides (protein, left off: small tags and cut ends, ferritin having inserted GRGDSP and AP1 peptides) MGRGDSPGGGSGMSSQIRQNYSTDVEAAVNSLVNLYLQASYTYLSLGFYFDRDDVALEGVSHFFRELAEEKREGYERLLKMQNQRGGRALFQDIKKPAEDEWGKTPDAMKAAMALEKKLNQALLDLHALGSARTDPHLCDFLETHFLDEEVKLIKKMGDHLTNLHRGSRKRLDRNGGPEAGLGEYLFERLTLKHD |  |  | bound to integrin alphavbeta3 in a concentration-dependent manner |  |
| GG-AP1S: human ferritin light chain with AP1S (RKRLDRN) inserted in GG cassette of the fourth loop; named FTL-AP1 in Examples 6-9 (protein, left off: small tags and cut ends) MSSQIRQNYSTDVEAAVNSLVNLYLQASYTYLSLGFYFDRDDVALEGVSHFFRELAEEKREGYERLLKMQNQRGGRALFQDIKKPAEDEWGKTPDAMKAAMALEKKLNQALLDLHALGSARTDPHLCDFLETHFLDEEVKLIKKMGDHLTNLHRGSRKRLDRNGGPEAGLGEYLFERLTLKHD | 1.25 ± 0.4 × 10^−3 S^−1 | 1.22 ± 0.64 × 10^6 M^−1S^−1 |  |  |
